In this experiment the target is T1, human GPC3 (human, UniProt P51654 25-563).
T1 construct: range 25-563; soluble analyte; also called soluble human GPC3; glypican 3
Nature of the experiment: SPR. In general terms: SPR reads the build-up and loss of mass on a sensor chip optically.

Substitutions are numbered along the chain they refer to.

T1 sequence (P51654 25-563 limits assumed): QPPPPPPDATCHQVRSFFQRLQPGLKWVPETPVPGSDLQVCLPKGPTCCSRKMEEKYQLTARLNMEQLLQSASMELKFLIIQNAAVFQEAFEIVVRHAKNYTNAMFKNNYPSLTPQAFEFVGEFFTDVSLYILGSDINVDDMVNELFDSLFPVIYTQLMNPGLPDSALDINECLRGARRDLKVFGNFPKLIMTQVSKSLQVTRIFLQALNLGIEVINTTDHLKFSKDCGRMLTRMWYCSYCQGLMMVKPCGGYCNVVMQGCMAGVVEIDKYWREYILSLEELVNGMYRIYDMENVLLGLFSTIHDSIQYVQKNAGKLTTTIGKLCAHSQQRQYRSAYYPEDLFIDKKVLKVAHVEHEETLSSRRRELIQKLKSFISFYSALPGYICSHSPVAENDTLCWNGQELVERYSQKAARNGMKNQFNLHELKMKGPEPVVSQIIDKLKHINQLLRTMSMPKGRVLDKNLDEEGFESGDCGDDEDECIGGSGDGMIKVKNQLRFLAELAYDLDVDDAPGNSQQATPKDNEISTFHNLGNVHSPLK

B1: H0610-G1dh/none-Hi-Kn010G3/L0120-k0 (antibody, V domains shown)
VH: QVQLVQSGAEVKKPGASVKVSCKASGYTFTDYEMHWIRQPPGQGLEWIGAIDGKTPDTAYSQKFKGRVTLTADKSTSTAYMELSSLTSEDTAVYYCTRFYSYTYWGQGTLVTVSS
VL: DIVMTQSPLSLPVTPGEPASISCRSSQSLVHSNRNTYLHWYQQKPGQAPRLLIYKVSNRGSGVPDRFSGSGSGTDFTLKISRVEAEDVGVYYCGQGTQVPYTFGQGTKLEIK
notes: one-arm
What is called Kd is the free concentration of one partner at which half of the binding sites on the other are occupied at equilibrium, for simple one-to-one binding. A higher Kd goes with weaker binding. In turn, B1 had a Kd of 4.54 nM.

B2: H0610-G1dh/none-Hi-Kn010G3/L0122-k0 (antibody, V domains shown)
VH: B1 VH
VL: B1 VL with G60I
notes: one-arm
B2 had a dissociation constant (Kd) of 2.42 nM.

B3: H0610-G1dh/none-Hi-Kn010G3/L0147-k0 (antibody, V domains shown)
VH: B1 VH
VL: B1 VL with G60F, S61V
notes: one-arm
B3 came in with a Kd of 4.38 nM.

B4: H0610-G1dh/none-Hi-Kn010G3/L0132-k0 (antibody, V domains shown)
VH: B1 VH
VL: B1 VL with G60V
notes: one-arm
For the molecule B4, the Kd amounted to 5.65 nM.

B5: H0610-G1dh/none-Hi-Kn010G3/L0163-k0 (antibody, V domains shown)
VH: B1 VH
VL: B1 VL with G60F, G94Y
notes: one-arm
B5 showed a Kd of 3.38 nM.

B6: H0610-G1dh/none-Hi-Kn010G3/L0141-k0 (antibody, V domains shown)
VH: B1 VH
VL: B1 VL with G60F, S61M
notes: one-arm
Take B6: binding was characterised by a dissociation constant (Kd) of 3.86 nM.

B7: H0610-G1dh/none-Hi-Kn010G3/L0145-k0 (antibody, V domains shown)
VH: B1 VH
VL: B1 VL with G60F, S61R
notes: one-arm
In turn, B7 showed a Kd of 2.66 nM.

B8: H0610-G1dh/none-Hi-Kn010G3/L0161-k0 (antibody, V domains shown)
VH: B1 VH
VL: B1 VL with G60F, G94V
notes: one-arm
The molecule B8 yielded a Kd of 0.973 nM.

B9: H0610-G1dh/none-Hi-Kn010G3/L0144-k0 (antibody, V domains shown)
VH: B1 VH
VL: B1 VL with G60F, S61Q
notes: one-arm
Take B9: the Kd was determined as 4.84 nM.

B10: H0610-G1dh/none-Hi-Kn010G3/L0127-k0 (antibody, V domains shown)
VH: B1 VH
VL: B1 VL with G60P
notes: one-arm
For the molecule B10, the Kd turned out to be 3.12 nM.

B11: H0610-G1dh/none-Hi-Kn010G3/L0134-k0 (antibody, V domains shown)
VH: B1 VH
VL: B1 VL with G60Y
notes: one-arm
In turn, B11 came in with a Kd of 2.53 nM.

B12: H0610-G1dh/none-Hi-Kn010G3/L0180-k0 (antibody, V domains shown)
VH: B1 VH
VL: B1 VL with G60F, V99N
notes: one-arm
Consider B12, for which binding was characterised by a dissociation constant (Kd) of 4.48 nM.

B13: H0610-G1dh/none-Hi-Kn010G3/L0129-k0 (antibody, V domains shown)
VH: B1 VH
VL: B1 VL with G60R
notes: one-arm
In the case of B13, the Kd was 5.28 nM.

B14: H0610-G1dh/none-Hi-Kn010G3/L0138-k0 (antibody, V domains shown)
VH: B1 VH
VL: B1 VL with G60F, S61H
notes: one-arm
As for B14, the Kd is 5.24 nM.

B15: H0610-G1dh/none-Hi-Kn010G3/L0139-k0 (antibody, V domains shown)
VH: B1 VH
VL: B1 VL with G60F, S61I
notes: one-arm
Molecule B15 showed a Kd of 4.78 nM.

B16: H0610-G1dh/none-Hi-Kn010G3/L0123-k0 (antibody, V domains shown)
VH: B1 VH
VL: B1 VL with G60K
notes: one-arm
Regarding B16, binding was put at a Kd of 5.08 nM.

B17: H0610-G1dh/none-Hi-Kn010G3/L0200-k0 (antibody, V domains shown)
VH: B1 VH
VL: B1 VL with S25P, L29P, G60F
notes: one-arm
B17 returned a Kd of 1.04 nM.

B18: H0610-G1dh/none-Hi-Kn010G3/L0213-k0 (antibody, V domains shown)
VH: B1 VH
VL: B1 VL with L29P, L38I, G60F, S61R
notes: one-arm
Molecule B18 registered a Kd of 1.25 nM.

B19: H0610-G1dh/none-Hi-Kn010G3/L0136-k0 (antibody, V domains shown)
VH: B1 VH
VL: B1 VL with G60F, S61F
notes: one-arm
B19 came in with a Kd of 5.04 nM.

B20: H0610-G1dh/none-Hi-Kn010G3/L0167-k0 (antibody, V domains shown)
VH: B1 VH
VL: B1 VL with G60F, G96S
notes: one-arm
B20 showed a Kd of 0.211 nM.

B21: H0610-G1dh/none-Hi-Kn010G3/L0155-k0 (antibody, V domains shown)
VH: B1 VH
VL: B1 VL with G60F, G94L
notes: one-arm
Molecule B21 showed a Kd of 1.28 nM.

B22: H0610-G1dh/none-Hi-Kn010G3/L0126-k0 (antibody, V domains shown)
VH: B1 VH
VL: B1 VL with G60N
notes: one-arm
In turn, B22 registered a Kd of 5.62 nM.

B23: H0610-G1dh/none-Hi-Kn010G3/L0124-k0 (antibody, V domains shown)
VH: B1 VH
VL: B1 VL with G60L
notes: one-arm
The molecule B23 registered a Kd of 0.972 nM.

B24: H0610-G1dh/none-Hi-Kn010G3/L0160-k0 (antibody, V domains shown)
VH: B1 VH
VL: B1 VL with G60F, G94T
notes: one-arm
Take B24: binding was put at a Kd of 2.12 nM.

B25: H0610-G1dh/none-Hi-Kn010G3/L0151-k0 (antibody, V domains shown)
VH: B1 VH
VL: B1 VL with G60F, G94E
notes: one-arm
Molecule B25 displayed a dissociation constant (Kd) of 1.25 nM.

B26: H0610-G1dh/none-Hi-Kn010G3/L0152-k0 (antibody, V domains shown)
VH: B1 VH
VL: B1 VL with G60F, G94F
notes: one-arm
In the case of B26, the Kd came out at 2.36 nM.

B27: H0610-G1dh/none-Hi-Kn010G3/L0214-k0 (antibody, V domains shown)
VH: B1 VH
VL: B1 VL with S28P, L29P, G60F, S61R
notes: one-arm
For the molecule B27, the Kd came out at 0.657 nM.

B28: H0610-G1dh/none-Hi-Kn010G3/L0143-k0 (antibody, V domains shown)
VH: B1 VH
VL: B1 VL with G60F, S61P
notes: one-arm
Molecule B28 showed a Kd of 0.573 nM.

B29: H0610-G1dh/none-Hi-Kn010G3/L0175-k0 (antibody, V domains shown)
VH: B1 VH
VL: B1 VL with G60F, V99H
notes: one-arm
B29 registered a Kd of 3.84 nM.

B30: H0610-G1dh/none-Hi-Kn010G3/L0186-k0 (antibody, V domains shown)
VH: B1 VH
VL: B1 VL with G60F, V99W
notes: one-arm
B30 yielded a Kd of 1.08 nM.

B31: H0610-G1dh/none-Hi-Kn010G3/L0215-k0 (antibody, V domains shown)
VH: B1 VH
VL: B1 VL with S28P, L29P, L38I, G60F
notes: one-arm
In the case of B31, the Kd stood at 1.64 nM.

B32: H0610-G1dh/none-Hi-Kn010G3/L0140-k0 (antibody, V domains shown)
VH: B1 VH
VL: B1 VL with G60F, S61L
notes: one-arm
In the case of B32, the Kd is 3.38 nM.

B33: H0610-G1dh/none-Hi-Kn010G3/L0149-k0 (antibody, V domains shown)
VH: B1 VH
VL: B1 VL with G60F, G94A
notes: one-arm
Turning to B33, binding was put at a Kd of 2.16 nM.

B34: H0610-G1dh/none-Hi-Kn010G3/L0125-k0 (antibody, V domains shown)
VH: B1 VH
VL: B1 VL with G60M
notes: one-arm
In the case of B34, the dissociation constant (Kd) worked out at 1.71 nM.

B35: H0610-G1dh/none-Hi-Kn010G3/L0157-k0 (antibody, V domains shown)
VH: B1 VH
VL: B1 VL with G60F, G94N
notes: one-arm
Molecule B35 yielded a Kd of 2.6 nM.

B36: H0610-G1dh/none-Hi-Kn010G3/L0137-k0 (antibody, V domains shown)
VH: B1 VH
VL: B1 VL with G60F, S61G
notes: one-arm
Molecule B36 gave a Kd of 5.87 nM.

B37: H0610-G1dh/none-Hi-Kn010G3/L0187-k0 (antibody, V domains shown)
VH: B1 VH
VL: B1 VL with G60F, V99Y
notes: one-arm
In the case of B37, the Kd worked out at 4.92 nM.

B38: H0610-G1dh/none-Hi-Kn010G3/L0168-k0 (antibody, V domains shown)
VH: B1 VH
VL: B1 VL with G60F, G96T
notes: one-arm
Molecule B38 displayed a dissociation constant Kd of 0.699 nM.

B39: H0610-G1dh/none-Hi-Kn010G3/L0205-k0 (antibody, V domains shown)
VH: B1 VH
VL: B1 VL with L29P, G60F, S61W
notes: one-arm
The molecule B39 showed a Kd of 1.01 nM.

B40: H0610-G1dh/none-Hi-Kn010G3/L0216-k0 (antibody, V domains shown)
VH: B1 VH
VL: B1 VL with S28P, G60F, S61R
notes: one-arm
Turning to B40, the Kd is 1.86 nM.

B41: H0610-G1dh/none-Hi-Kn010G3/L0148-k0 (antibody, V domains shown)
VH: B1 VH
VL: B1 VL with G60F, S61W
notes: one-arm
B41 registered a Kd of 3.28 nM.

B42: H0610-G1dh/none-Hi-Kn010G3/L0181-k0 (antibody, V domains shown)
VH: B1 VH
VL: B1 VL with G60F, V99P
notes: one-arm
B42 yielded a Kd of 3.51 nM.

B43: H0610-G1dh/none-Hi-Kn010G3/L0202-k0 (antibody, V domains shown)
VH: B1 VH
VL: B1 VL with L29P, N35W, G60F
notes: one-arm
In turn, B43 came in with a Kd of 1.22 nM.

B44: H0610-G1dh/none-Hi-Kn010G3/L0217-k0 (antibody, V domains shown)
VH: B1 VH
VL: B1 VL with S25P, G60F, S61R
notes: one-arm
With B44, the Kd stood at 1.79 nM.

B45: H0610-G1dh/none-Hi-Kn010G3/L0154-k0 (antibody, V domains shown)
VH: B1 VH
VL: B1 VL with G60F, G94I
notes: one-arm
For B45, the equilibrium dissociation constant (Kd) stood at 1.01 nM.

B46: H0610-G1dh/none-Hi-Kn010G3/L0173-k0 (antibody, V domains shown)
VH: B1 VH
VL: B1 VL with G60F, V99F
notes: one-arm
Turning to B46, the affinity, expressed as Kd, was 2.83 nM.

The record behind these values is patent US20250066503A1, “CELL INJURY INDUCING THERAPEUTIC DRUG FOR USE IN CANCER THERAPY” (CHUGAI SEIYAKU KABUSHIKI KAISHA, priority 2016, published 2025).
